Key:
human thrombin [1] = molecular target: T1, human thrombin (human, UniProt P00734 314-363; P00734 364-622); experiment: cell-based or functional assay
human thrombin [2] = molecular target: T1, human thrombin; experiment: estimated from the rate of S2238 hydrolysis by thrombin
human thrombin [3] = molecular target: T1, human thrombin; experiment: cell-based or functional assay; remark: listed apart in the source
prothrombin = prothrombin (Homo sapiens (Human), UniProt P00734 44-622); experiment: pull-down with IgA-binding lectin agarose; supernatant on non-reducing SDS-PAGE
human thrombin [4] = molecular target: T1, human thrombin; experiment: Biacore, antibody as ligand, after storage for one month at 4° C.
human thrombin [5] = molecular target: T1, human thrombin; experiment: Biacore, antibody as ligand, ambient condition; Control (ambient condition), not 4° C. storage or light exposure
human thrombin [6] = molecular target: T1, human thrombin; experiment: Biacore, antibody as ligand, after exposure to light
human thrombin [7] = molecular target: T1, human thrombin; experiment: ELISA binding to thrombin, four-parameter fit (log(agonist) vs. response -- Variable slope)

Binder | EC50 (read off the curve), Vi/V0 of S2238 cleavage by thrombin (human thrombin [1]) [nM] | Kd (human thrombin [2]) [nM] | thrombin hydrolysis of FVIII (feedback activation of thrombin via Xase complex) (human thrombin [3]) [fold] | thrombin hydrolysis of platelet receptor PAR-1 peptide (activation of platelets) (human thrombin [3]) [fold] | binding result (prothrombin) | Kd (human thrombin [4]) [nM] | Kd (human thrombin [5]) [nM] | Kd (human thrombin [6]) [nM] | EC50 (human thrombin [7]) [µg/mL]
wild-type anti-exosite 1 IgA antibody (antibody, V domains shown, also called anti-thrombin IgA; anti-IIa IgA) VH: QVQLIQSGSAVKKPGASVRVSCKVSGYTLTEAAIHWVRQAPGKGLEWMGGLDPQDGETVYAQQFKGRVTMTEDRSTDTAYMEVNNLRSEDTATYYCTTGDFSEFEPFSMDYFHFWGQGTVVTVAS VL: EIVLTQSPATLSLSPGERATLSCRASQNVSSFLAWYQHKPGQAPRLLIYDASSRATDIPIRFSGSGSGTDFTLTISGLEPEDFAVYYCQQRRSWPPLTFGGGTKVEIKR | ~10 | ~12 | 7 | 15 | no binding | – | – | – | –
synthetic anti-exosite 1 IgG S30A variant antibody (antibody, V domains shown, also called ichorcumab S30A; ichorcumab) VH: QVQLIQSGSAVKKPGASVRVSCKVSGYTLTEAAIHWVRQAPGKGLEWMGGLDPQDGETVYAQQFKGRVTMTEDRSTDTAYMEVNNLRSEDTATYYCTTGDFSEFEPFSMDYFHFWGQGTVVTVAS VL: EIVLTQSPATLSLSPGERATLSCRASQNVASFLAWYQHKPGQAPRLLIYDASSRATDIPIRFSGSGSGTDFTLTISGLEPEDFAVYYCQQRRSWPPLTFGGGTKVEIKR | – | – | – | – | – | 1.74 | 1.77 | 1.8 | 0.0126

— patent publication US20160347862A1 (Janssen / Centocor, published 2016)
